Values joined by “and” are separate entries in the source; they are usually repeats but may differ in a detail not shown here. Equal entries are not always repeated.
T1: huFcεRI-ECD-Fc (IgE receptor fusion) (human, UniProt P12319 26-205)
T1 construct: extracellular domain; not shown: Fc part
T1 sequence (looked up): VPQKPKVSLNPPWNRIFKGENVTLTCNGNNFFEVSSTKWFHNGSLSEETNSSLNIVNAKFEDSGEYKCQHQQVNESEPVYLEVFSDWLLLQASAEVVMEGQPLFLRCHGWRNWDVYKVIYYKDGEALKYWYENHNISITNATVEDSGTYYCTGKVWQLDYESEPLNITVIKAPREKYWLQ

T2: native human FcγRIIA (CD32A) on K562 erythroleukemia cells (human, UniProt P12318 34-317)
T2 construct: also called huFcγRIIA (CD32A); native FcγRIIA
T2 sequence: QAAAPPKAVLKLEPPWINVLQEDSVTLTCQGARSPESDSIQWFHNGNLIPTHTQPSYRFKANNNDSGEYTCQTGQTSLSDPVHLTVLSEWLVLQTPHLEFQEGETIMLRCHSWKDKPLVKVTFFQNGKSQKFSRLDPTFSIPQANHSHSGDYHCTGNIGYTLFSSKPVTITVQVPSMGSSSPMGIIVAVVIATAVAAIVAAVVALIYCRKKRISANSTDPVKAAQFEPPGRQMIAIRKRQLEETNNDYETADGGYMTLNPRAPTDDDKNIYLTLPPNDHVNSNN

B1: 5A6/22E7 knob in holes, hingeless bispecific antibody (anti-FcγRIIB/anti-FcεRI) (bispecific antibody)
chain 1: EVKLEESGGGLVQPGGSMKLSCVASGFTFSDAWMDWVRQSPERGLEWVAEIRSKPNNHATYYAESVKGRFTISRDDSKSSVYLQMTSLRPEDTGIYYCTHFDYWGQGTTLTVSSAKTTGPSVFPLAPSSKSTSGGTAALGCLVKDYFPEPVTVSWNSGALTSGVHTFPAVLQSSGLYSLSSVVTVPSSSLGTQTYICNVNHKPSNTKVDKKVEPKSCDKTHTSPPSPAPELLGGPSVFLFPPKPKDTLMISRTPEVTCVVVDVSHEDPEVKFNWYVDGVEVHNAKTKPREEQYNSTYRVVSVLTVLHQDWLNGKEYKCKVSNKALPAPIEKTISKAKGQPREPQVYTLPPSRDELTKNQVSLWCLVKGFYPSDIAVEWESNGQPENNYKTTPPVLDSDGSFFLYSKLTVDKSRWQQGNVFSCSVMHEALHNHYTQKSLSLSPEL
chain 2: DIQMTQSPSSLSASLGERVSLTCRASQEISGYLSWFQQKPDGTIKRLIYAASALDSGVPKRFSGSWSGSDYSLTISSLESEDFADYYCLQYVSYPLTFGAGTKLELKRTVAAPSVFIFPPSDEQLKSGTASVVCLLNNFYPREAKVQWKVDNALQSGNSQESVTEQDSKDSTYSLSSTLTLSKADYEKHKVYACEVTHQGLSSPVTKSFNRGEC
chain 3: EVKLVESGGGLVKPGGSLKLSCAASGFTFSSYGMSWVRQTPEKRLEWVATISGGNNYTFYPDNLKGRFTISRDNAKNILYLQISSLRSVDTALYYCASLWYRASFAYWGQGTLVTVSSAKTTGPSVFPLAPSSKSTSGGTAALGCLVKDYFPEPVTVSWNSGALTSGVHTFPAVLQSSGLYSLSSVVTVPSSSLGTQTYICNVNHKPSNTKVDKKVEPKSCDKTHTSPPSPAPELLGGPSVFLFPPKPKDTLMISRTPEVTCVVVDVSHEDPEVKFNWYVDGVEVHNAKTKPREEQYNSTYRVVSVLTVLHQDWLNGKEYKCKVSNKALPAPIEKTISKAKGQPREPQVYTLPPSRDELTKNQVSLSCAVKGFYPSDIAVEWESNGQPENNYKTTPPVLDSDGSFFLVSKLTVDKSRWQQGNVFSCSVMHEALHNHYTQKSLSLSPEL
chain 4: DIMMTQSPSSMYASLGERVTITCKASQDINSYLSWFQQKPGKSPKTLISRANRLVDGVPSRFSGSGSGQDYSLTISSLEYEDMGIYYCLQYDDFPFTFGGGTKVEIKRTVAAPSVFIFPPSDEQLKSGTASVVCLLNNFYPREAKVQWKVDNALQSGNSQESVTEQDSKDSTYSLSSTLTLSKADYEKHKVYACEVTHQGLSSPVTKSFNRGEC

Columns and labels:
[1] = molecular target: B1; assay: flow cytometry, RBL huFcεRI+huFcγRIIB1 and +huFcγRIIB2 cells (FIGS. 40, 41)
[2] = molecular target: T1, huFcεRI-ECD-Fc (IgE receptor fusion); assay: sandwich (bridging) ELISA, FIG. 30: plate huFcεRI-ECD-Fc, antibody titrated, then FcγRIIB-His6-GST and anti-GST-biotin/streptavidin-HRP; signal needs both arms, so the value does not measure 22E7 on FcεRI alone
[3] = molecular target: T3, GST-huFcγRIIB (human FcγRIIB extracellular domain-Gly-His6-GST fusion protein) (human, UniProt P08515 1-218 = GST); assay: sandwich (bridging) ELISA, FIG. 29: plate FcγRIIB-His6-GST, antibody titrated, then huFcεRI-ECD-Fc and IgE-biotin/streptavidin-HRP; signal needs both arms
T3 construct: Expressed in 293 cells; also called FcγRIIB-His6-GST; huFcγRIIB-His6-GST

[4] = molecular target: T1, huFcεRI-ECD-Fc (IgE receptor fusion); assay: sandwich (bridging) ELISA, FIG. 30: plate huFcεRI-ECD-Fc, antibody titrated, then FcγRIIB-His6-GST and anti-GST-biotin/streptavidin-HRP; signal needs both arms
Protocol: ELISA plates were coated overnight at 4° C. with 100 μl of a 1 μg/ml solution of huFcεRI-ECD-Fc in PBS, pH 7.4. The plate was washed with PBS and blocked with 1% Casein blocker in PBS. The wells were washed three times with PBS/0.05% TWEEN®. Serial dilutions of 5A6/22E7 bispecific antibodies, 5A6 antibodies, or 22E7 antibody were prepared in ELISA Diluent buffer and added to wells at 100 μl/well of each dilution. The plates were incubated for 1 hour at room temperature. After washing the plate three times with PBS/0.05% TWEEN®, FcγRIIB-His₆-GST was added to each well at 100 μl of 1 μg/ml in the presence of 10 μg/ml of CD4-IgG to block FcγRIIB-His₆-GST binding to Fc portion of the test antibody, huFcεRI-ECD-Fc and secondary antibody (anti-GST-biotin) and incubated for 1 hour at room temperature. After washing the plate three times with PBS/0.05% TWEEN®, 100 μl of 1 μg/ml anti-GST-biotin was added to each well and incubated for 1 hour at room temperature. The plate was washed with PBS/0.05% TWEEN® and incubated 30 minutes with 100 μl/well of 1:2000 Streptavidin-HRP in Elisa diluent buffer. After washing with PBS/0.05% TWEEN®, the plate was incubated 5 minutes with 100 μl TMB substrate. The reaction was quenched with 100 μl/well stop solution and the plate read at 630 nm. […]

[5] = molecular target: T3, GST-huFcγRIIB (human FcγRIIB …); assay: ELISA, plate-coated GST fusion (FIG. 6)
[6] = molecular target: T2, native human FcγRIIA (CD32A) on K562 …; assay: indirect immunofluorescence, flow cytometry on K562 cells (FIG. 16)
Text: Indirect immunofluorescence binding analysis of 5A6 MAb to native FcγRIIA expressed on K562 erythroleukemia cells (ATCC No. CCL-243) is presented in FIG. 16. Separated aliquots of K562 cells were stained with either a mIgG1 isotype control (mopc 21), 5A6 (anti-human FcγRIIB) monoclonal antibody or Medarex 4.3 MAb (anti-human FcγRIIA/B) monoclonal antibody.

Binder | ECD to bispecific ratio at which binding to cells is decreased (complete blocking only with both ECDs) [1] | IC50 [3] | IC50 [4] | further results
huFcγRIIB extracellular domain with C-terminal His6 tag (huFcγRIIB ECD) (receptor, Whole entry named; only the extracellular domain is in the construct; Baculovirus expression) TPAAPPKAVLKLEPQWINVLQEDSVTLTCRGTHSPESDSIQWFHNGNLIPTHTQPSYRFKANNNDSGEYTCQTGQTSLSDPVHLTVLSEWLVLQTPHLEFQEGETIVLRCHSWKDKPLVKVTFFQNGKSKKFSRSDPNFSIPQANHSHSGDYHCTGNIGYTLYSSKPVTITVQAPHHHHHH | 10 ratio ECD:bispecific |  |  | 
huFcεRIα extracellular domain (huFcεRIα ECD) (receptor, human, UniProt P12319 26-205, looked up, extracellular domain; also called huFcεRI ECD) VPQKPKVSLNPPWNRIFKGENVTLTCNGNNFFEVSSTKWFHNGSLSEETNSSLNIVNAKFEDSGEYKCQHQQVNESEPVYLEVFSDWLLLQASAEVVMEGQPLFLRCHGWRNWDVYKVIYYKDGEALKYWYENHNISITNATVEDSGTYYCTGKVWQLDYESEPLNITVIKAPREKYWLQ | 10 ratio ECD:bispecific |  |  | 
22E7 MAb (anti-human FcεRI monoclonal antibody) (antibody) chain 1: EVKLVESGGGLVKPGGSLKLSCAASGFTFSSYGMSWVRQTPEKRLEWVATISGGNNYTFYPDNLKGRFTISRDNAKNILYLQISSLRSVDTALYYCASLWYRASFAYWGQGTLVTVSS chain 2: DIMMTQSPSSMYASLGERVTITCKASQDINSYLSWFQQKPGKSPKTLISRANRLVDGVPSRFSGSGSGQDYSLTISSLEYEDMGIYYCLQYDDFPFTFGGGTKVEIK |  | 100 µg/mL |  | IC50 [2]: 2800 µg/mL
5A6/22E7 knob in holes, wild type hinge, bispecific antibody (bispecific antibody) chain 1: EVKLEESGGGLVQPGGSMKLSCVASGFTFSDAWMDWVRQSPERGLEWVAEIRSKPNNHATYYAESVKGRFTISRDDSKSSVYLQMTSLRPEDTGIYYCTHFDYWGQGTTLTVSSAKTTGPSVFPLAPSSKSTSGGTAALGCLVKDYFPEPVTVSWNSGALTSGVHTFPAVLQSSGLYSLSSVVTVPSSSLGTQTYICNVNHKPSNTKVDKKVEPKSCDKTHTCPPCPAPELLGGPSVFLFPPKPKDTLMISRTPEVTCVVVDVSHEDPEVKFNWYVDGVEVHNAKTKPREEQYNSTYRVVSVLTVLHQDWLNGKEYKCKVSNKALPAPIEKTISKAKGQPREPQVYTLPPSRDELTKNQVSLWCLVKGFYPSDIAVEWESNGQPENNYKTTPPVLDSDGSFFLYSKLTVDKSRWQQGNVFSCSVMHEALHNHYTQKSLSLSPEL chain 2: DIQMTQSPSSLSASLGERVSLTCRASQEISGYLSWFQQKPDGTIKRLIYAASALDSGVPKRFSGSWSGSDYSLTISSLESEDFADYYCLQYVSYPLTFGAGTKLELKRTVAAPSVFIFPPSDEQLKSGTASVVCLLNNFYPREAKVQWKVDNALQSGNSQESVTEQDSKDSTYSLSSTLTLSKADYEKHKVYACEVTHQGLSSPVTKSFNRGEC chain 3: not shown chain 4: DIMMTQSPSSMYASLGERVTITCKASQDINSYLSWFQQKPGKSPKTLISRANRLVDGVPSRFSGSGSGQDYSLTISSLEYEDMGIYYCLQYDDFPFTFGGGTKVEIKRTVAAPSVFIFPPSDEQLKSGTASVVCLLNNFYPREAKVQWKVDNALQSGNSQESVTEQDSKDSTYSLSSTLTLSKADYEKHKVYACEVTHQGLSSPVTKSFNRGEC |  | 0.0552 µg/mL and 0.076 µg/mL | 0.49 µg/mL and 0.291 µg/mL | 
Antibody 5A6.2.1 (anti-human FcγRIIB monoclonal antibody) (antibody, 5A6(A) and 5A6(B) are two protein preps of 5A6; also called 5A6 MAb; 5A6 mIgG1) VH: EVKLEESGGGLVQPGGSMKLSCVASGFTFSDAWMDWVRQSPERGLEWVAEIRSKPNNHATYYAESVKGRFTISRDDSKSSVYLQMTSLRPEDTGIYYCTHFDYWGQGTTLTVSSAKTTGPSVFPLAPSSKSTSGGTAALGCLVKDYFPEPVTVSWNSGALTSGVHTFPAVLQSSGLYSLSSVVTVPSSSLGTQTYICNVNHKPSNTKVDKKVEPKSCDKTHT VL: DIQMTQSPSSLSASLGERVSLTCRASQEISGYLSWFQQKPDGTIKRLIYAASALDSGVPKRFSGSWSGSDYSLTISSLESEDFADYYCLQYVSYPLTFGAGTKLELKRTVAAPSVFIFPPSDEQLKSGTASVVCLLNNFYPREAKVQWKVDNALQSGNSQESVTEQDSKDSTYSLSSTLTLSKADYEKHKVYACEVTHQGLSSPVTKSFNRGEC |  |  |  | EC50 [5]: 0.06 nM; binding result [6]: no binding
B1 |  | 0.023 µg/mL | 0.0765 µg/mL | 

From US20090087428A1 (Genentech, published 2009)
